The values below are quoted from earlier work in article PMC3437440.

The data set addresses IgG1 Fc Fc (Homo sapiens) [IgG part: P01857].

Chain of FcγRIIIa (Val158 variant) (P08637 17-254, change not shown): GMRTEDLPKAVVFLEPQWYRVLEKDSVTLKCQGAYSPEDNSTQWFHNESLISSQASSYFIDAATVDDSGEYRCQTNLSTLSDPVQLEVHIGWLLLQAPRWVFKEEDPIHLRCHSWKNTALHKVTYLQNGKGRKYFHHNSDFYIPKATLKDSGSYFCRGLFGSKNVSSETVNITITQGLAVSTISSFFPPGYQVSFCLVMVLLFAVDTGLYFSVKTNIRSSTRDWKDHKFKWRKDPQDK

Consider “FcγRIIIa (Val158 variant) (from UniProt P08637)”, for which the Kd – broadly, a measure of binding affinity in units of concentration – is 100 nM.
